Nine molecules from paper PMC6298698 can be followed below.

Assay [1] addresses mouse Slo1 (mSlo1) BK channel α subunit, mbr5 splice variant (mouse).
Assay [2] has the same target. The source holds these as a separate data set.

B1: human BK channel β2 subunit C1S (C84S) (natural protein)
chain: MFIWTSGRTSSSYRHDEKRNIYQKIRDHDLLDKRKTVTALKAGEDRAILLGLAMMVCSIMMYFLLGITLLRSYMQSVWTEESQSTLLNASITETFNCSFSCGPDCWKLSQYPCLQVYVNLTSSGEKLLLYHTEETIKINQKCSYIPKCGKNFEESMSLVNVVMENFRKYQHFSCYSDPEGNQKSVILTKLYSSNVLFHSLFWPTCMMAGGVAIVAMVKLTQYLSLLCERIQRINR
Take B1: the experimental rectification ratio Rβ2* of mSlo1+β2(C1S), not corrected for unbinding in assay [1] came to 1.22. The same molecule had an unbinding probability (q), from the non-inactivating offset of currents, inside-out patches of HEK293 cells, 10 μM Ca2+ in assay [2] of 0.48.

B2: human BK channel β2 subunit C6S (C142S) (natural protein)
chain: MFIWTSGRTSSSYRHDEKRNIYQKIRDHDLLDKRKTVTALKAGEDRAILLGLAMMVCSIMMYFLLGITLLRSYMQSVWTEESQCTLLNASITETFNCSFSCGPDCWKLSQYPCLQVYVNLTSSGEKLLLYHTEETIKINQKSSYIPKCGKNFEESMSLVNVVMENFRKYQHFSCYSDPEGNQKSVILTKLYSSNVLFHSLFWPTCMMAGGVAIVAMVKLTQYLSLLCERIQRINR
In assay [2], B2 yielded an unbinding probability (q), from the non-inactivating offset of currents, inside-out patches of HEK293 cells, 10 μM Ca2+ of 0.41.

B3: human BK channel β2 subunit C4S (C105S) (natural protein)
chain: MFIWTSGRTSSSYRHDEKRNIYQKIRDHDLLDKRKTVTALKAGEDRAILLGLAMMVCSIMMYFLLGITLLRSYMQSVWTEESQCTLLNASITETFNCSFSCGPDSWKLSQYPCLQVYVNLTSSGEKLLLYHTEETIKINQKCSYIPKCGKNFEESMSLVNVVMENFRKYQHFSCYSDPEGNQKSVILTKLYSSNVLFHSLFWPTCMMAGGVAIVAMVKLTQYLSLLCERIQRINR
Consider B3, for which the unbinding probability (q), from the non-inactivating offset of currents, inside-out patches of HEK293 cells, 10 μM Ca2+ in assay [2] stood at 0.08.

B4: human BK channel β2 subunit (KCNMB2), wild type (natural protein)
chain: MFIWTSGRTSSSYRHDEKRNIYQKIRDHDLLDKRKTVTALKAGEDRAILLGLAMMVCSIMMYFLLGITLLRSYMQSVWTEESQCTLLNASITETFNCSFSCGPDCWKLSQYPCLQVYVNLTSSGEKLLLYHTEETIKINQKCSYIPKCGKNFEESMSLVNVVMENFRKYQHFSCYSDPEGNQKSVILTKLYSSNVLFHSLFWPTCMMAGGVAIVAMVKLTQYLSLLCERIQRINR
In the case of B4, the unbinding probability (q), from the non-inactivating offset of currents, inside-out patches of HEK293 cells, 10 μM Ca2+ in assay [2] amounted to 0.07.

B5: human BK channel β2 subunit C2S (C97S) (natural protein)
chain: MFIWTSGRTSSSYRHDEKRNIYQKIRDHDLLDKRKTVTALKAGEDRAILLGLAMMVCSIMMYFLLGITLLRSYMQSVWTEESQCTLLNASITETFNSSFSCGPDCWKLSQYPCLQVYVNLTSSGEKLLLYHTEETIKINQKCSYIPKCGKNFEESMSLVNVVMENFRKYQHFSCYSDPEGNQKSVILTKLYSSNVLFHSLFWPTCMMAGGVAIVAMVKLTQYLSLLCERIQRINR
In the case of B5, the experimental rectification ratio Rβ2* of mSlo1+β2(C2S), not corrected for unbinding in assay [1] came out at 1.43. Moreover, the unbinding probability (q), from the non-inactivating offset of currents, inside-out patches of HEK293 cells, 10 μM Ca2+ in assay [2] is 0.09.

B6: human BK channel β2 subunit C5S (C113S) (natural protein)
chain: MFIWTSGRTSSSYRHDEKRNIYQKIRDHDLLDKRKTVTALKAGEDRAILLGLAMMVCSIMMYFLLGITLLRSYMQSVWTEESQCTLLNASITETFNCSFSCGPDCWKLSQYPSLQVYVNLTSSGEKLLLYHTEETIKINQKCSYIPKCGKNFEESMSLVNVVMENFRKYQHFSCYSDPEGNQKSVILTKLYSSNVLFHSLFWPTCMMAGGVAIVAMVKLTQYLSLLCERIQRINR
Take B6: the unbinding probability (q), from the non-inactivating offset of currents, inside-out patches of HEK293 cells, 10 μM Ca2+ in assay [2] is 0.66.

B7: human BK channel β2 subunit C3S (C101S) (natural protein)
chain: MFIWTSGRTSSSYRHDEKRNIYQKIRDHDLLDKRKTVTALKAGEDRAILLGLAMMVCSIMMYFLLGITLLRSYMQSVWTEESQCTLLNASITETFNCSFSSGPDCWKLSQYPCLQVYVNLTSSGEKLLLYHTEETIKINQKCSYIPKCGKNFEESMSLVNVVMENFRKYQHFSCYSDPEGNQKSVILTKLYSSNVLFHSLFWPTCMMAGGVAIVAMVKLTQYLSLLCERIQRINR
In turn, B7 came in with an unbinding probability (q), from the non-inactivating offset of currents, inside-out patches of HEK293 cells, 10 μM Ca2+ in assay [2] of 0.09.

B8: human BK channel β2 subunit C8S (C174S) (natural protein)
chain: MFIWTSGRTSSSYRHDEKRNIYQKIRDHDLLDKRKTVTALKAGEDRAILLGLAMMVCSIMMYFLLGITLLRSYMQSVWTEESQCTLLNASITETFNCSFSCGPDCWKLSQYPCLQVYVNLTSSGEKLLLYHTEETIKINQKCSYIPKCGKNFEESMSLVNVVMENFRKYQHFSSYSDPEGNQKSVILTKLYSSNVLFHSLFWPTCMMAGGVAIVAMVKLTQYLSLLCERIQRINR
With B8, the unbinding probability (q), from the non-inactivating offset of currents, inside-out patches of HEK293 cells, 10 μM Ca2+ in assay [2] was 0.38.

B9: human BK channel β2 subunit C7S (C148S) (natural protein)
chain: MFIWTSGRTSSSYRHDEKRNIYQKIRDHDLLDKRKTVTALKAGEDRAILLGLAMMVCSIMMYFLLGITLLRSYMQSVWTEESQCTLLNASITETFNCSFSCGPDCWKLSQYPCLQVYVNLTSSGEKLLLYHTEETIKINQKCSYIPKSGKNFEESMSLVNVVMENFRKYQHFSCYSDPEGNQKSVILTKLYSSNVLFHSLFWPTCMMAGGVAIVAMVKLTQYLSLLCERIQRINR
As for B9, in assay [2], the unbinding probability (q), from the non-inactivating offset of currents, inside-out patches of HEK293 cells, 10 μM Ca2+ is 0.08.
